We go through five molecules from US20230141177A1 (UNIVERSITY OF BRITISH COLUMBIA, published 2023).

The target in test [1] is T1, A-beta42 Oligomer (oligomer prep, made in F12 medium) (human).
T1 construct: also called synthetic AβO
Description: SPR (MASS-1), antibody immobilized, A-beta42 oligomer injected. On the procedure: (§1) All surface plasmon resonance (SPR) measurements were performed using a Molecular Affinity Screening System (MASS-1) (Sierra Sensors GmbH, Hamburg, Germany), an analytical biosensor that employs high intensity laser light and high speed optical scanning to monitor binding interactions in real time. In SPR direct binding assays, antibodies are covalently immobilized on individual flow cells of a High Amine Capacity (HAC) sensorchip (Sierra Sensors GmbH, Hamburg, Germany) and ligands flowed over the surface (BSA-conjugated peptides, A-beta42 Monomer and A-beta42 Oligomer). Each sample was diluted and injected in duplicate over the immobilized peptide and BSA reference surfaces, followed by injection of running buffer only for the dissociation phase. After every analytical cycle, the sensor chip surfaces were regenerated. Sensorgrams were double-referenced by subtracting out binding from the BSA reference surfaces and blank running buffer injections, and binding response report points collected in the dissociation phase.

The target in test [2] is T2, cyclo (CGHHQKG) (SEQ ID NO: 2)-BSA (cyclized peptide, cyclo(CGHHQKG); conjugated to BSA).
T2 construct: also called cyclic peptide-BSA; cyclo-BSA peptide
As to the kind of experiment: SPR multi-cycle kinetics, purified IgG4 vs cyclic peptide-BSA.

Test [3] has as its target T3, linear (CGHHQKG) (SEQ ID NO: 2) peptide-BSA (linear (non-cyclized) peptide; conjugated to BSA).
T3 construct: also called linear peptide-BSA; linear-BSA peptide
Description: SPR multi-cycle kinetics, purified IgG4 vs linear peptide-BSA.

The target of test [4] is T4, commercial A-beta oligomer (purchased from SynAging) (human).
T4 construct: also called commercial oligomer
As to the kind of experiment: SPR (MASS-1), antibody immobilized, commercial oligomer injected. The protocol:
as §1

Test [5] concerns the target T2, cyclo (CGHHQKG) (SEQ ID NO: 2)-BSA. Description: SPR single cycle kinetics; IgG4 in cell supernatant captured on Protein A chip; peptide-BSA injected at four rising concentrations, 0.025 to 0.675 nM [Cont.]. The protocol:
(§2) A four-point, three-fold dilution range from 0.025 nM to 0.675 nM peptide-BSA without regeneration between each concentration was used.

The target of test [6] is T3, linear (CGHHQKG) (SEQ ID NO: 2) …. Described as above. The protocol:
as §2

T4 sequence (peptide, as listed by the source): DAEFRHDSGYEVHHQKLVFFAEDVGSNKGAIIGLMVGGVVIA
T1 sequence (peptide, as listed by the source): as above
T3 sequence (P02769 25-607 limits assumed): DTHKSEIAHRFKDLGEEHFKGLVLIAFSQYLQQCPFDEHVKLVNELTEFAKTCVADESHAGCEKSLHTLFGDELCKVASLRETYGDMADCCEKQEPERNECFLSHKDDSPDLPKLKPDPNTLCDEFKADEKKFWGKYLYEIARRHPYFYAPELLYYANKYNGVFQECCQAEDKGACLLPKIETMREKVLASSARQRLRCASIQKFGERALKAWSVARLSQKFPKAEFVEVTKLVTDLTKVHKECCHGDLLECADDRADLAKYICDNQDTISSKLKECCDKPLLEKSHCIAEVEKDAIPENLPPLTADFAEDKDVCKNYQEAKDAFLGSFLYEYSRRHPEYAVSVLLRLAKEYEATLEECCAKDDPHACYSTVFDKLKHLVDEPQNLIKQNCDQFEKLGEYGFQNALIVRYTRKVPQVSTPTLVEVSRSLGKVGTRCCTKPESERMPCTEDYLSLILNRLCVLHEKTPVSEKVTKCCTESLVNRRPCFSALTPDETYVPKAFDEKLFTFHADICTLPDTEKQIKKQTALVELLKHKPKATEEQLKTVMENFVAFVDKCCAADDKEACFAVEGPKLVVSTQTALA
T2 sequence (P02769 25-607 limits assumed): as above

B1: parental antibody, PMN310 humanized antibody variant VH2/Vk5 (human IgG4 S241P / kappa) (antibody, V domains shown)
VH: QVQLVQSGAEVKKPGASVKMSCKASGYSFTSYWINWVKQRPGQGLEWIGDVHPGRGVSTYNAKFKSRATLTLDTSISTAYMELSSLRSEDTAVYYCSRSHGNTYWFFDVWGQGTTVTVSS
VL: DVLMTQSPLSLPVTLGQPASISCRSSQSIVHSNGNTYLEWYQQRPGQSPRLLIYKVSNRFSGVPDRFSGSGSGTDFTLKISRVEAEDVGVYYCFQGSHVPFTFGQGTKLEIKR
notes: also called parental huPMN310; huPMN310
In the case of B1, the “Binding to oligomer prep (BRU)” value in test [1] worked out at 85.6 BRU. In test [2], the Kd (in general, the free concentration of one partner at which half of the binding sites on the other are occupied at equilibrium, for simple one-to-one binding) was determined as 0.0274 nM; the koff – broadly, the first-order rate constant of dissociation – came to 0.000155 s⁻¹; the kon – broadly, the second-order rate constant of association – was 5.65e+06 M⁻¹ s⁻¹. In test [3], this molecule displayed a dissociation constant (Kd) of 0.103 nM, a koff of 0.000155 s⁻¹ and a kon of 1.5e+06 M⁻¹ s⁻¹. Also, the “Binding to commercial oligomer (BRU)” value in test [4] amounted to 3 BRU.

B2: Clone 4 (affinity matured VH with parental Vk, human IgG4 S241P / kappa) (antibody, V domains shown)
VH: QVQLVQSGAEVKKPGASVKMSCKASGYSFTSYWINWVKQRPGQGLEWIGDVHPGRGVSTYNAKFKSRATLTLDTSISTAYMELSSLRSEDTAVYYCARVSPTGYWFFDVWGQGTTVTVSS
VL: DVLMTQSPLSLPVTLGQPASISCRSSQSIVHSNGNTYLEWYQQRPGQSPRLLIYKVSNRFSGVPDRFSGSGSGTDFTLKISRVEAEDVGVYYCFQGSHVPFTFGQGTKLEIKR
Take B2: the “Binding to oligomer prep (BRU)” value in test [1] is 57.3 BRU. In test [2], this molecule displayed an equilibrium dissociation constant (Kd) of 0.0235 nM, a koff of 6.9e-05 s⁻¹ and an on-rate (kon) of 2.94e+06 M⁻¹ s⁻¹. In addition, the “Binding to commercial oligomer (BRU)” value in test [4] turned out to be 22.6 BRU.

B3: Clone 14 (affinity matured VH with parental Vk, human IgG4 S241P / kappa) (antibody, V domains shown)
VH: QVQLVQSGAEVKKPGASVKMSCKASGYSFTSYWINWVKQRPGQGLEWIGDVHPGRGVSTYNAKFKSRATLTLDTSISTAYMELSSLRSEDTAVYYCAKSDASGYWFFDVWGQGTTVTVSS
VL: DVLMTQSPLSLPVTLGQPASISCRSSQSIVHSNGNTYLEWYQQRPGQSPRLLIYKVSNRFSGVPDRFSGSGSGTDFTLKISRVEAEDVGVYYCFQGSHVPFTFGQGTKLEIKR
With B3, the “Binding to oligomer prep (BRU)” value in test [1] amounted to 30.8 BRU. In test [2], this molecule displayed a Kd of 0.0289 nM, an off-rate constant (koff) of 0.000152 s⁻¹ and a kon of 5.26e+06 M⁻¹ s⁻¹. For the same molecule, in test [4], the “Binding to commercial oligomer (BRU)” value worked out at 22.3 BRU.

B4: Clone 13 (antibody, human IgG4 S228P, kappa, V domains shown)
VH: QVQLVQSGAEVKKPGASVKMSCKASGYSFTSYWINWVKQRPGQGLEWIGDVHPGRGVSTYNAKFKSRATLTLDTSISTAYMELSSLRSEDTAVYYCARSVGDTYWFYDVWGQGTTVTVSS
VL: DVLMTQSPLSLPVTLGQPASISCRSSQSIVHSNGNTYLEWYQQRPGQSPRLLIYKVSNRFSGVPDRFSGSGSGTDFTLKISRVEAEDVGVYYCFQGSHVPFTFGQGTKLEIKR
B4: the binding result in test [5] and in test [6] was “no binding” in each case.

B5: Clone 5 (affinity matured VH with parental Vk, human IgG4 S241P / kappa) (antibody, V domains shown)
VH: QVQLVQSGAEVKKPGASVKMSCKASGYSFTSYWINWVKQRPGQGLEWIGDVHPGRGVSTYNAKFKSRATLTLDTSISTAYMELSSLRSEDTAVYYCARGALSPYWFFDVWGQGTTVTVSS
VL: DVLMTQSPLSLPVTLGQPASISCRSSQSIVHSNGNTYLEWYQQRPGQSPRLLIYKVSNRFSGVPDRFSGSGSGTDFTLKISRVEAEDVGVYYCFQGSHVPFTFGQGTKLEIKR
Take B5: the “Binding to oligomer prep (BRU)” value in test [1] is 223 BRU. In test [2], the Kd was 0.0647 nM, the koff was determined as 0.000132 s⁻¹ and the kon is 2.04e+06 M⁻¹ s⁻¹. Besides, in test [3], the Kd was 0.0924 nM, the koff stood at 0.000138 s⁻¹ and the kon turned out to be 1.49e+06 M⁻¹ s⁻¹. In test [4], the “Binding to commercial oligomer (BRU)” value turned out to be 32.3 BRU.
